Measurements from PMC314469, “Protein Interaction Networks by Proteome Peptide Scanning” (PLoS Biology, 2004).

T1: amphyphisin SH3 (AMPH_HUMAN), P49418
T1 chain: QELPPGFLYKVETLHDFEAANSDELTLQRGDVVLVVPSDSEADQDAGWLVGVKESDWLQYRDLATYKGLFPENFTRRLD


Tests used:
[1] = molecular target: T1, amphyphisin SH3 (AMPH_HUMAN), P49418; assay: SPOT array
[2] = molecular target: endophilin SH3 (SH3G2_HUMAN), Q99962; assay: SPOT array

Row | Binder | normalised SPOT signal, Boehringer light units (BLU); mean over the file's lines of this peptide [1] | normalised SPOT signal, Boehringer light units (BLU); mean over the file's lines of this peptide [2]
1 | QRQRPPRPPPRGTP [Q8WTU5 20-34] | 8800 | 11000
2 | QSISLRRPRLASQS [Q9UBH6 665-678] | 56.1 | 208
3 | QRKNLRRPPSIKGW [Q9NYL5 22-35] | 25.3 | 57.6
4 | ATSRFYRPPRSSHS [Q9C0B5 150-163] | 5620 | 400
5 | QQPPPRRPPQAPEG [Q9UPY6 301-315] | 744 | 430
6 | QQPGPAKPPTQQVG [Q9Y6V0 366-380] | 62.4 | 30.3
7 | ATDLPKKPPPPEVT [Q96QH2 123-137] | 68.1 | 46.8
8 | QPQGPPRPPQGGRP [P04280 312-326] | 58.6 | 210
9 | QPQSLRRPLWLSHS [Q9H8J7 161-174] | 66.8 | 1380
10 | QVFLPPRPPKVLGL [Q9Y3F0 251-265] | 1150 | 2710
11 | QQFRLRRPSGITWP [Q96RY6 139-152] | 61.5 | 116
12 | QVDPPERPPPPPSD [Q9H292 194-208] | 43.2 | 275
13 | QVKDIRRPERRHSD [Q9UI45 1886-1899] | 534 | 123
14 | QQKPPKRPPIEASV [Q9BZS0 76-90] | 57.3 | 822
15 | QPVNPPRPFKHSER [Q9Y381 268-281] | 275 | 1250
16 | QVDPPERPPSPPSD [Q9H4B3 193-207] | 92.2 | 326
17 | ATDAPSRPGRLAGR [Q9H6H6 405-418] | 5530 | 147

Further lines, results first:

Row | normalised SPOT signal, Boehringer light units (BLU); mean over the file's lines of this peptide [1] | normalised SPOT signal, Boehringer light units (BLU); mean over the file's lines of this peptide [2] | Binder
18 | 36.8 | 106 | QQPLPRRPGHDDGQ [Q16360 104-117]
19 | 49.9 | 4000 | QSSPPQRPPAPASP [BAC05814 18-32]
20 | 37.5 | 93.1 | QSLKIRRPHDYQPL [P26368 222-235]
21 | 84.1 | 94.4 | QPQGPPRPPQGDKP [Q15215 74-88]
22 | 8910 | 14600 | QVIRPPRPPKVLGL [P39193 571-585]
23 | 3270 | 106 | QQQLLQRPPRDAQQ [O15350 392-405]
24 | 117 | 423 | QVIHPPRPPKVLGL [P39194 572-585]
25 | 66.4 | 82.5 | QVIGPHRPPELHDR [P20813 329-343]
26 | 64.1 | 29.5 | QRSHFKRPRELEDA [P33897 430-443]
27 | 40.3 | 64.7 | QVEKLRRPEGASNE [O75381 360-373]
28 | 936 | 5000 | QVILPPRPPKVLGL [P39188 470-484]
29 | 10200 | 2870 | QPLGPRRPMRPVGH [Q07092 192-205]
30 | 35.1 | 94.2 | QSTNPKRPLSSANQ [P35670 228-241]
31 | 47.8 | 520 | QQNLPKRPTSLPLN [Q13873 748-761]
